Source: paper PMC4453921, “Crystal structure of caspase recruiting domain (CARD) of apoptosis repressor with CARD (ARC) and its implication in inhibition of apoptosis” (Scientific Reports, 2015)

B1: ARC CARD domain (amino acids 1-95), wild type [human] / itself (parent)
chain: MGNAQERPSETIDRERKRLVETLQADSGLLLDALLARGVLTGPEYEALDALPDAERRVRRLLLLVQGKGEAACQELLRCAQRTAGAPDPAWDWQH

Variants of: B1
Assay: SEC-MALS
Conditions: with itself

Variant	screen value [kDa]
chain 1 R56E R59E	11.8
chain 1 D49R R59E	12.8
chain 1 D49R	13
chain 1 R56E	13.2
chain 1 R59E	12
